Reference: patent US20250197923

Assays:
[1] = tested on: BD009-SDpol-1 (synthetic construct); conditions: RT-LAMP time at 10000 copies RNA; 7 mM MgSO4, 50 mM KCl, pH 8.8; 18.6 min at 10 copies
Bst 2.0 = conditions: RT-LAMP time at 10000 copies RNA; 8 mM MgSO4, 50 mM KCl, pH 8.8; none at 100 copies

For SARS-CoV-2 gene N LAMP target, the activity [1] was 8.7 min and the activity (Bst 2.0) was 30 min.
